Reference: patent US20240010735A1 (EISAI R AND D MANAGEMENT, published 2024)

B1: mouse anti-EphA4 monoclonal antibody (antibody A) (antibody, mouse IgG1, kappa, V domains shown)
VH: QVQLKQSGPSLVQPSQSLSITCTVSGFSLTRYGVHWVRQSPGKGLEWLGVIWRGGSTDYNAAFMSRLSITKDNSKSQVFFKMNSLQADDTAIYYCAKESLFGVYYDYGYYSMDYWGQGTSVTVSS
VL: DIQMTQSPSSLSASLGERVSLTCRASQEISGYLSWLQQKPDGTIKRLIYAASTLDSGVPKRFSGSRSGSDYSLTISSLESEDFADYYCLQYASYPLTFGAGTKLELKR
notes: purified from hybridoma supernatant
B2: humanized anti-EphA4 monoclonal antibody (antibody B) (antibody, human IgG2, V domains shown)
VH: QVQLVESGGGVVQPGRSLRLSCAVSGFSLTRFGVHWVRQAPGKGLEWVAVIWRGGSTDYNAAFMSRLTISKDNSKNTVYLQMNSLRAEDTAVYYCAKESLFGVYYDYGYYSMDYWGQGTTVTVSS
VL: DIQMTQSPSSLSASVGDRVTITCRASQEISGYLSWLQQKPGKAPKRLIYAASTLDSGVPSRFSGSRSGTEYTLTISSLQPEDFATYYCLQYASYPLTFGGGTKVEIKR
notes: expressed in Expi293F cells; also called humanized antibody of antibody A; HK2-42 / L1-8

Assays:
[1] = molecular target: T1, human EphB4 extracellular region-SEAP-His protein (human, UniProt P54760 16-539); experiment: ELISA: SEAP-His proteins (1 nM) captured on anti-6-His antibody, antibody A 10 µg/mL with human IgG 100 µg/mL, HRP anti-mouse IgG, OD450 as % of human EphA4-SEAP-His
T1 construct: extracellular domain; also called Eph receptor extracellular region-SEAP-His protein; not shown: secretory alkaline phosphatase (SEAP); histidine tag
T1 sequence (looked up): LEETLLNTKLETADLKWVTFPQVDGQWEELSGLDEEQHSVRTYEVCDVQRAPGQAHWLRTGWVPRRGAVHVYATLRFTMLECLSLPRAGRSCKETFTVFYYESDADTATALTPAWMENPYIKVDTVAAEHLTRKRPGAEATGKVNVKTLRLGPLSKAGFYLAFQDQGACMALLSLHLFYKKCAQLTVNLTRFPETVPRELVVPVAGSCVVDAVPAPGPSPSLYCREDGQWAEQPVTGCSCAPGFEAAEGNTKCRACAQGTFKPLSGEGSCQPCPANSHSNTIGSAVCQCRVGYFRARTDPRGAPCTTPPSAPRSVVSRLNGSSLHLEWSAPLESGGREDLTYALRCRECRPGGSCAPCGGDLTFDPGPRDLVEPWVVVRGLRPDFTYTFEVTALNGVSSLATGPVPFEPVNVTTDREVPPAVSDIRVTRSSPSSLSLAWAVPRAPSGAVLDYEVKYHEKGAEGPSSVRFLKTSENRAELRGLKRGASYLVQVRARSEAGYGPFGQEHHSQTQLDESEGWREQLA

[2] = molecular target: MBP; experiment: ELISA: human EphA4 domain-MBP-His proteins (10 nM) captured on anti-6-His antibody, antibody A 10 nM, HRP anti-mouse IgG Fc fragment antibody, OD450-OD650
Protocol: For antibody A, the evaluation of binding activity with various domains in human EphA4 was carried cut according to the following steps.
Rabbit anti-6-His antibodies (Bethyl Laboratories) were coated onto the wells of a 96-well plate (Nunc). After incubating at 4° C. overnight, the wells were blocked at room temperature for 1 hour by 1% Block Ace (DS Pharma Biomedical). After washing twice with 0.02% Tween 20/PBS (Nacalai Tesque), human EphA4 extracellular region-MBP-His protein, human EphA4 ligand binding domain-MBP-His protein, human EphA4 fibronectin type III domain 1-NBP-His protein, and human EphA4 fibronectin type III domain 2-MBP-His protein (final concentration 10 nM) were seeded into the wells, and incubated at room temperature for 1 hour. After washing 3 times, antibody A (final concentration 10 nM) was supplemented to the wells, and incubated at room temperature for 1 hour. Horseradish peroxidase-labeled goat anti-mouse IgG Fcγ fragment antibody (Jackson ImmunoResearch Laboratories) was added, and incubated at room temperature for 1 hour. After washing 5 times, TMB solution (KPL) was added to the wells, and upon confirmation of modest coloring, an equal amount of quenching solution (2 N H₂SO₄, Wako Pure Chemicals) was added to the wells, and absorbance at 450 nm and 650 nm were read by a microplate reader (PerkinElmer).

[3] = molecular target: MBP; experiment: ELISA: human EphA4 domain-MBP-His proteins (10 nM) captured on anti-6-His antibody, antibody B 10 nM, HRP anti-human IgG Fc fragment antibody, OD450-OD650
Protocol: Rabbit anti-6-His antibodies (Bethyl Laboratories) were coated onto the wells of a 96-well plate (Nunc). After incubating at 4° C. overnight, the wells were blocked at room temperature for 1 hour by 1% Block Ace (DS Pharma Biomedical). After washing twice with 0.02% Tween 20/PBS (Nacalai Tesque), human EphA4 extracellular region-MBP-His protein, human EphA4 ligand binding domain-MBP-His protein, human EphA4 fibronectin type III domain 1-MBP-His protein, and human EphA4 fibronectin type III domain 2-MBP-His protein (final concentration 10 nM) were seeded into the wells, and incubated at room temperature for 1 hour. After washing 3 times, antibody B (final concentration 10 nM) was supplemented to the wells, and incubated at room temperature for 1 hour. Horseradish peroxidase-labeled rabbit anti-human IgG Fey fragment antibody (Jackson ImmunoResearch Laboratories) was added, and incubated at room temperature for 1 hour. After washing 5 times, TMB (KPL) solution was added to the wells, and upon confirmation of modest coloring, an equal amount of quenching solution (2 N […]) was added to the wells, and absorbance at 450 nm and 650 nm were read by a microplate reader (PerkinElmer).

Binder	binding result [1]	binding result [2]	binding result [3]
B1	no binding (tested: 10 µg/mL)	no binding (tested: 10 nM)	–
B2	–	–	no binding (tested: 10 nM)
